Data from the supplement of paper PMC9112550, “Optimization of the antimicrobial peptide Bac7 by deep mutational scanning” (BMC Biology, 2022).

system: Escherichia coli TOP10; test: shrunken log2 fold change of peptide-encoding DNA abundance (4.5 h post-induction vs induction); higher = less antimicrobial activity (less host growth inhibition); conditions: time post-induction: 4.5 h; library: site-saturation at positions 5, 18, 19, 20
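Note: peptides expressed intracellularly from a pBAD plasmid library in pooled LB shake-flask culture, induced with 0.3% L-arabinose, DNA abundance read by NGS, three biological replicates, DESeq2 with apeglm shrinkage.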

| Sequence | shrunken log2 fold change |
| --- | --- |
| RRIRERPPRLPRPRPRPPGFPRP | 0.479 |
| RRIRTRPPRLPRPRPRPEKYPRP | -0.156 |
| RRIRYRPPRLPRPRPRPAVFPRP | -0.0965 |
| RRIRVRPPRLPRPRPRPHTMPRP | -0.252 |
| RRIRMRPPRLPRPRPRPQLYPRP | 0.284 |
| RRIRTRPPRLPRPRPRPNLFPRP | 0.0121 |
| RRIRGRPPRLPRPRPRPAHLPRP | 0.768 |
| RRIRQRPPRLPRPRPRPKFRPRP | 0.0034 |
| RRIRIRPPRLPRPRPRPPRCPRP | 0.0758 |
| RRIRYRPPRLPRPRPRPSWFPRP | -0.942 |
| RRIRFRPPRLPRPRPRPEYQPRP | -0.0212 |
| RRIRARPPRLPRPRPRPMRLPRP | 1.29 |
| RRIRVRPPRLPRPRPRPKSVPRP | -0.00455 |
| RRIRGRPPRLPRPRPRPTIDPRP | 0.214 |
| RRIRSRPPRLPRPRPRPMIQPRP | 0.0624 |
| RRIRMRPPRLPRPRPRPPYGPRP | 0.294 |
| RRIRWRPPRLPRPRPRPQPDPRP | 0.32 |
| RRIRRRPPRLPRPRPRPDECPRP | 0.746 |
| RRIRSRPPRLPRPRPRPSFEPRP | 0.0257 |
| RRIRMRPPRLPRPRPRPHRVPRP | -0.0492 |
| RRIRLRPPRLPRPRPRPVTVPRP | -0.128 |
| RRIRYRPPRLPRPRPRPRPMPRP | -0.227 |
| RRIRQRPPRLPRPRPRPPLSPRP | 0.0729 |
| RRIRQRPPRLPRPRPRPKGIPRP | 0.0655 |
| RRIRCRPPRLPRPRPRPFANPRP | -0.29 |

| Sequence | shrunken log2 fold change |
| --- | --- |
| RRIRMRPPRLPRPRPRPIMAPRP | -0.0196 |
| RRIRVRPPRLPRPRPRPYTKPRP | -0.868 |
| RRIRERPPRLPRPRPRPQQTPRP | -0.0895 |
| RRIRIRPPRLPRPRPRPEKDPRP | -0.0191 |
| RRIRERPPRLPRPRPRPEQIPRP | -0.207 |
| RRIRQRPPRLPRPRPRPPGDPRP | 0.194 |
| RRIRGRPPRLPRPRPRPFIRPRP | -0.257 |
| RRIRCRPPRLPRPRPRPVWFPRP | 0.029 |
| RRIRNRPPRLPRPRPRPQNFPRP | 0.0364 |
| RRIRARPPRLPRPRPRPETLPRP | 1.15 |
| RRIRERPPRLPRPRPRPQLQPRP | -0.0648 |
| RRIRARPPRLPRPRPRPNELPRP | 0.343 |
| RRIRERPPRLPRPRPRPKVHPRP | -0.196 |
| RRIRKRPPRLPRPRPRPVPFPRP | -0.101 |
| RRIRTRPPRLPRPRPRPKQDPRP | 0.075 |
| RRIRYRPPRLPRPRPRPCWRPRP | -0.138 |
| RRIRRRPPRLPRPRPRPIPNPRP | 0.349 |
| RRIRDRPPRLPRPRPRPTMVPRP | 0.028 |
| RRIRRRPPRLPRPRPRPDQVPRP | 0.0594 |
| RRIRARPPRLPRPRPRPHCAPRP | 0.149 |
| RRIRRRPPRLPRPRPRPWCVPRP | -0.032 |
| RRIRSRPPRLPRPRPRPRNTPRP | -0.411 |
| RRIRARPPRLPRPRPRPNFFPRP | 0.349 |
| RRIRSRPPRLPRPRPRPRFPPRP | 0.198 |
| RRIRMRPPRLPRPRPRPAYIPRP | 0.768 |

| Sequence | shrunken log2 fold change |
| --- | --- |
| RRIRNRPPRLPRPRPRPKNTPRP | -0.462 |
| RRIRARPPRLPRPRPRPHEVPRP | 0.101 |
| RRIRVRPPRLPRPRPRPYSCPRP | -0.00112 |
| RRIRVRPPRLPRPRPRPPVHPRP | -0.0509 |
| RRIRKRPPRLPRPRPRPGHDPRP | 0.141 |
| RRIRKRPPRLPRPRPRPMCEPRP | 0.12 |
| RRIRSRPPRLPRPRPRPTYWPRP | -0.123 |
| RRIRLRPPRLPRPRPRPIWLPRP | 0.132 |
| RRIRRRPPRLPRPRPRPIMWPRP | 0.121 |
| RRIRWRPPRLPRPRPRPSMKPRP | -0.199 |
| RRIRSRPPRLPRPRPRPLALPRP | -0.107 |
| RRIRWRPPRLPRPRPRPGGAPRP | 0.691 |
| RRIRFRPPRLPRPRPRPVQAPRP | 0.183 |
| RRIRSRPPRLPRPRPRPVLKPRP | -0.0386 |
| RRIRTRPPRLPRPRPRPAIHPRP | -0.384 |
| RRIRVRPPRLPRPRPRPAYHPRP | -0.316 |
| RRIRWRPPRLPRPRPRPRNKPRP | 0.0794 |
| RRIRKRPPRLPRPRPRPMNSPRP | -0.0163 |
| RRIRLRPPRLPRPRPRPIWGPRP | 0.112 |
| RRIRNRPPRLPRPRPRPDSSPRP | -0.00145 |
| RRIRMRPPRLPRPRPRPSVVPRP | 0.124 |
| RRIRQRPPRLPRPRPRPKRIPRP | -0.0308 |
| RRIRIRPPRLPRPRPRPMCLPRP | -0.425 |
| RRIRPRPPRLPRPRPRPCPKPRP | -0.0283 |
| RRIRKRPPRLPRPRPRPVYAPRP | -0.0576 |

| Sequence | shrunken log2 fold change |
| --- | --- |
| RRIRSRPPRLPRPRPRPWFCPRP | -0.439 |
| RRIRERPPRLPRPRPRPQIDPRP | -0.046 |
| RRIRLRPPRLPRPRPRPKPNPRP | 0.288 |
| RRIRARPPRLPRPRPRPNEVPRP | 0.0341 |
| RRIRKRPPRLPRPRPRPPITPRP | 0.0882 |
| RRIRIRPPRLPRPRPRPKAKPRP | 0.329 |
| RRIRFRPPRLPRPRPRPGNNPRP | -0.276 |
| RRIRSRPPRLPRPRPRPFTIPRP | -0.0987 |
| RRIRHRPPRLPRPRPRPLCDPRP | -0.397 |
| RRIRVRPPRLPRPRPRPPLMPRP | 0.175 |
| RRIRSRPPRLPRPRPRPFEIPRP | 0.0385 |
| RRIRPRPPRLPRPRPRPSIVPRP | -0.662 |
| RRIRWRPPRLPRPRPRPYRLPRP | 0.00724 |
| RRIRGRPPRLPRPRPRPCSYPRP | 0.089 |
| RRIRERPPRLPRPRPRPRMIPRP | -0.0503 |
| RRIRGRPPRLPRPRPRPGGKPRP | 0.555 |
| RRIRDRPPRLPRPRPRPYQPPRP | -0.0769 |
| RRIRPRPPRLPRPRPRPHDAPRP | 0.0201 |
| RRIRNRPPRLPRPRPRPFEPPRP | -0.181 |
| RRIRQRPPRLPRPRPRPTKQPRP | 0.045 |
| RRIRARPPRLPRPRPRPRVQPRP | 0.359 |
| RRIRTRPPRLPRPRPRPWWVPRP | -0.0227 |
| RRIRPRPPRLPRPRPRPYSCPRP | -0.183 |
| RRIRGRPPRLPRPRPRPISGPRP | 0.000749 |
| RRIRLRPPRLPRPRPRPFYRPRP | -0.295 |

| Sequence | shrunken log2 fold change |
| --- | --- |
| RRIRPRPPRLPRPRPRPIVCPRP | -0.228 |
| RRIRDRPPRLPRPRPRPWGFPRP | 0.13 |
| RRIRPRPPRLPRPRPRPSVCPRP | -0.273 |
| RRIRHRPPRLPRPRPRPHPLPRP | -0.0572 |
| RRIRKRPPRLPRPRPRPKCCPRP | 0.0349 |
| RRIRWRPPRLPRPRPRPKFNPRP | -0.434 |
| RRIRRRPPRLPRPRPRPDDMPRP | -0.039 |
| RRIRTRPPRLPRPRPRPKIWPRP | 0.141 |
| RRIRGRPPRLPRPRPRPTLDPRP | 0.93 |
| RRIRNRPPRLPRPRPRPMDFPRP | -0.12 |
| RRIRTRPPRLPRPRPRPYAQPRP | -0.495 |
| RRIRIRPPRLPRPRPRPEHMPRP | -0.0778 |
| RRIRDRPPRLPRPRPRPYLNPRP | -0.272 |
| RRIRYRPPRLPRPRPRPVNPPRP | -0.0594 |
| RRIRVRPPRLPRPRPRPANLPRP | -0.163 |
| RRIRKRPPRLPRPRPRPQWLPRP | 0.0628 |
| RRIRKRPPRLPRPRPRPPGNPRP | 0.712 |
| RRIRFRPPRLPRPRPRPSQKPRP | -0.0426 |
| RRIRCRPPRLPRPRPRPFNQPRP | -0.421 |
| RRIRYRPPRLPRPRPRPYSGPRP | -1 |
| RRIRRRPPRLPRPRPRPHITPRP | -0.385 |
| RRIRVRPPRLPRPRPRPYRQPRP | -0.479 |
| RRIRSRPPRLPRPRPRPRWHPRP | 0.111 |
| RRIRGRPPRLPRPRPRPIGYPRP | -0.017 |
| RRIRARPPRLPRPRPRPTQDPRP | 0.974 |

| Sequence | shrunken log2 fold change |
| --- | --- |
| RRIRWRPPRLPRPRPRPRVMPRP | 0.275 |
| RRIRLRPPRLPRPRPRPYTPPRP | -0.484 |
| RRIRHRPPRLPRPRPRPSRKPRP | 0.094 |
| RRIRVRPPRLPRPRPRPGGHPRP | 0.13 |
| RRIRVRPPRLPRPRPRPPYKPRP | -0.371 |
| RRIRSRPPRLPRPRPRPVIDPRP | -0.26 |
| RRIRFRPPRLPRPRPRPESFPRP | 0.0272 |
| RRIRDRPPRLPRPRPRPTDQPRP | 0.118 |
| RRIRLRPPRLPRPRPRPQYDPRP | -0.155 |
| RRIRSRPPRLPRPRPRPIKQPRP | -0.13 |
| RRIRSRPPRLPRPRPRPGKHPRP | 0.0205 |
| RRIRLRPPRLPRPRPRPRGEPRP | 0.207 |
| RRIRIRPPRLPRPRPRPYTNPRP | -0.957 |
| RRIRWRPPRLPRPRPRPELYPRP | 0.541 |
| RRIRQRPPRLPRPRPRPLLVPRP | -0.295 |
| RRIRQRPPRLPRPRPRPFGAPRP | -0.0476 |
| RRIRIRPPRLPRPRPRPGQYPRP | -0.221 |
| RRIRARPPRLPRPRPRPDYAPRP | 2.44 |
| RRIRCRPPRLPRPRPRPEDLPRP | 0.117 |
| RRIRLRPPRLPRPRPRPYVVPRP | -0.481 |
| RRIRRRPPRLPRPRPRPVHKPRP | 0.092 |
| RRIRNRPPRLPRPRPRPITNPRP | -0.279 |
| RRIRYRPPRLPRPRPRPRQAPRP | 0.0877 |
| RRIRVRPPRLPRPRPRPEMNPRP | -0.16 |
| RRIRIRPPRLPRPRPRPDENPRP | 0.108 |
